Reference: patent US9307782B2, “Mannanase produced from Cellulosimicrobium sp. strain HY-13” (Korea Research Institute of Bioscience and Biotechnology, priority 2011, dated 2016)
Marks after values point to notes of the source that are not given here.

Key:
mannanase = assay: Effect of metal ions and chemicals on mannanase activity; format: biochemical, Cellulosimicrobium sp. HY-13; settings: for effect on the enzyme activity / increase of catalytic activity of the mannanase: pH 6.0, 50° C.
[1] = Analysis of degradation product (HPLC, LC-MS/MS); format: biochemical; settings: 1 μg recombinant mannanase, pH 6.0, 30° C., 12 hours, LC area %
Procedure: (§1) Mannooligomer (M2˜M5, 1 mg/100 μl each) and locust bean gum (1.4 mg/100 μl) were reacted in 50 mM sodium phosphate buffer (pH 6.0) containing 1 μg of the recombinant mannanase at 30° C. for 12 hours, followed by investigation of the hydrolysate. HPLC (high performance liquid chromatography) was performed by using Finnigan Surveyor™ Modular HPLC systems (Thermo Electron Co.) equipped with Asahipak NH2P-50 2D column (5 μm, 2.0×150 mm, Shodex) ran by Xcalibur software (version 1.3 SP2, Thermo Electron Co.). Elution buffer A (0.05% pomalus acid/sterilized water) and elution buffer B (acetonitrile and methanol (7:3) containing 0.05% pomalus acid) were used as moving phases. LC-MS/MS (liquid chromatography/tandem mass spectrometry) was performed by using Finnigan LCQ Advantage MAX ion trap mass spectrometer (Thermo Electron Co.).

[2] = Analysis of degradation product (HPLC, LC-MS/MS); format: biochemical; settings: substrate Ivory nut mannan; LC area %
Procedure: as §1, with “Mannooligomer (M2˜M5, 1 mg/100 μl each) and locust bean gum (1.4 mg/100 μl) were reacted in 50 mM sodium phosphate buffer (pH 6.0) containing 1 μg of the recombinant mannanase at 30° C. for 12 hours, followed by investigation of the hydrolysate.” left out

[3] = Specific activity of mannanase (DNS reducing sugar assay); format: biochemical; settings: pH 6.0, 50° C., 15 minutes
Procedure: To compare the mannanase activity to different matrixes, locust bean gum, ivory nut mannan and guar gum were used as matrixes and the activity of the purified mannanase to those matrixes were investigated.
The activity of β-1,4-mannanase was investigated by measuring the reduced amount of glucose isolated from locust bean gum using 3,5-dinitrosalicylic acid (DNS). At this time, D-mannose was used as a standard material. 0.5 Ml of a standard mixture composed of 0.5% locust bean gum was mixed with 0.05 Ml of an enzyme aqueous solution, followed by inducing biodegradation reaction in 50 mM sodium phosphate buffer (pH 6.0) at 50° C. for 15 minutes. The activity of the recombinated mannanase (1 IU) to the mannan substrate was defined as the amount of the protein necessary for the secretion of 1 μmol reducing sugar under the standard analysis condition. Chromogenic PNP-sugar derivative was used to measure another degrading activity of the said recombinated enzyme. The enzyme activity of the recombinated mannanase to the chromogenic substrate was measured under the same conditions as set for the analysis of β-1,4-mannanase activity. The activity of the recombinated mannanase (1 IU) to the PNP-sugar derivative was defined as the amount of the protein necessary for the production of 1 μmol PNP under the standard analysis condition.

[4] = metal ions 1 mM, chemicals 5 mM, 10 minutes
[5] = metal ions 1 mM, 50 mM sodium phosphate buffer (pH 6.0), 50° C., 10 minutes, None = 100.0
[6] = chemicals 5 mM, 50 mM sodium phosphate buffer (pH 6.0), 50° C., 10 minutes, None = 100.0
[7] = detergent 0.5%, 50 mM sodium phosphate buffer (pH 6.0), 50° C., 10 minutes, None = 100.0

[Cl][Sn][Cl] [SnCl2]
effect on the enzyme activity (mannanase; [4]): no effect
Relative activity (%) (mannanase; [5]): 103.7%

O=C(O)CN(CCN(CC(=O)O)CC(=O)O)CC(=O)O [EDTA]
Relative activity (%) (mannanase; pH 6): 19.0%

O=S(=O)([O-])[O-].[Zn+2] [ZnSO4]
Relative activity (%) (mannanase; [5]): 47.4%

[Cl-].[Cl-].[Co+2] [CoCl2]
Relative activity (%) (mannanase; pH 6): 111.9%

[Ca+2].[Cl-].[Cl-] [CaCl2]
Relative activity (%) (mannanase; [5]): 146.9%
increase of catalytic activity of the mannanase (mannanase; metal ions 1 mM, 10 minutes): at least 1.4 fold

CCN1C(=O)C=CC1=O [N-Ethylmaleimide]
Relative activity (%) (mannanase; [6]): 121.4%

O=S(=O)([O-])[O-].[Fe+2] [FeSO4]
Relative activity (%) (mannanase; [5]): 42.2%

[Cl][Hg][Cl] [HgCl2]
effect on the enzyme activity (mannanase; [4]): inactivated
Relative activity (%) (mannanase; [5]): 0%

CCCCCCCC/C=C\CCCCCCCC(=O)OCCOCC(OCCO)C1OCC(OCCO)C1OCCO (stereo not drawn) [Tween 80]
Relative activity (%) (mannanase; [7]): 103.5%

NC(=O)CI [Odoacetamide]
Relative activity (%) (mannanase; [6]): 113.3%

[Ba+2].[Cl-].[Cl-] [BaCl2]
Relative activity (%) (mannanase; [5]): 118.5%
increase of catalytic activity of the mannanase (mannanase; metal ions 1 mM, 10 minutes): approximately 1.2 fold

[Cl][Mn][Cl] [MnCl2]
Relative activity (%) (mannanase; [5]): 125.2%
increase of catalytic activity of the mannanase (mannanase; metal ions 1 mM, 10 minutes): approximately 1.2 fold

O=S(=O)([O-])[O-].[Mg+2] [MgSO4]
effect on the enzyme activity (mannanase; [4]): no effect
Relative activity (%) (mannanase; [5]): 99.9%

O=S(=O)([O-])[O-].[Ni+2] [NiSO4]
Relative activity (%) (mannanase; [5]): 67.1%

[Cl][Cu][Cl] [CuCl2]
Relative activity (%) (mannanase; [5]): 16.7%

Triton X-100
Relative activity (%) (mannanase; [7]): 98.9%

O=C1CCC(=O)N1Br [N-Bromosuccinimide]
Relative activity (%) (mannanase; [6]): 0%
effect on the enzyme activity (mannanase; [4]): inactivated

B1: rManH: Recombinant GH5 β-1,4-mannanase of Cellulosimicrobium sp. HY-13 produced in E. coli; SEQ. ID. NO: 1; approximately 44 kDa (protein)
chain: MRRLFAIVLGAVLALLAVPALAQGASVASDGFSVQDGRIYDANGNRFVPVGVNHAHAWYPSQTQSFADIRAAGANTVRVVLSGGRYGTSSAADVSAVVERCKQNQLVCILENHDTTGYGEDGSARSLASAAQYWTSIASVLRGQERYVMINIGNEPFGNSGFQSWTTDTIAAIRTLRAAGLDHTLVVDAPNWGQDWSFTMRDNAPTVAAADGNVVFSVHMYGVFDTGAEVRAYLDSFTSRGLPIMVGEFGDNHSDGNPDEATIMSYTRSQGIGMLGWSWSGNGGGVEYLDMVNGFSASSLTPWGQRFVHGADGLRARNAPAASVYGGDGGDGDGGAGTAPNGYPYCASASSDPDGDGWGWESSASCVVRGSSADTGSGGGSGSGSTAPNGYPYCASASSDPDGDGWGWESSASCVVRGSSADR
modifications: cellulosimicrobium
notes: Recombinant GH5 β-1,4-mannanase of Cellulosimicrobium sp; HY-13 produced in E. coli; ID; NO: 1; approximately 44 kDa
Composition (%) of products formed by hydrolysis reaction: M1 ([1]; substrate Locust bean gum): 1.1%
Composition (%) of products formed by hydrolysis reaction: M2 ([1]; substrate Locust bean gum): 6.4%
Composition (%) of products formed by hydrolysis reaction: M3 ([1]; substrate Locust bean gum): 1.5%
Composition (%) of products formed by hydrolysis reaction: M4 ([1]; substrate Locust bean gum): 7.4%
Composition (%) of products formed by hydrolysis reaction: M5 ([1]; substrate Locust bean gum): 44.2%
Composition (%) of products formed by hydrolysis reaction: M6 ([1]; substrate Locust bean gum): 16.1%
Composition (%) of products formed by hydrolysis reaction: M7 ([1]; substrate Locust bean gum): 21.4%
Composition (%) of products formed by hydrolysis reaction: M8 ([1]; substrate Locust bean gum): 1.9%
Composition (%) of products formed by hydrolysis reaction: M2 ([1]; substrate M2): 100.0%
Composition (%) of products formed by hydrolysis reaction: M1 ([1]; substrate M3): 3.5%
Composition (%) of products formed by hydrolysis reaction: M2 ([1]; substrate M3): 60.1%
Composition (%) of products formed by hydrolysis reaction: M3 ([1]; substrate M3): 31.6%
Composition (%) of products formed by hydrolysis reaction: M4 ([1]; substrate M3): 4.0%
Composition (%) of products formed by hydrolysis reaction: M5 ([1]; substrate M3): 0.8%
Composition (%) of products formed by hydrolysis reaction: M1 ([1]; substrate M4): 3.9%
Composition (%) of products formed by hydrolysis reaction: M2 ([1]; substrate M4): 55.5%
Composition (%) of products formed by hydrolysis reaction: M3 ([1]; substrate M4): 28.8%
Composition (%) of products formed by hydrolysis reaction: M4 ([1]; substrate M4): 9.9%
Composition (%) of products formed by hydrolysis reaction: M5 ([1]; substrate M4): 1.9%
Composition (%) of products formed by hydrolysis reaction: M1 ([1]; substrate M5): 4.1%
Composition (%) of products formed by hydrolysis reaction: M2 ([1]; substrate M5): 46.9%
Composition (%) of products formed by hydrolysis reaction: M3 ([1]; substrate M5): 21.8%
Composition (%) of products formed by hydrolysis reaction: M4 ([1]; substrate M5): 16.6%
Composition (%) of products formed by hydrolysis reaction: M5 ([1]; substrate M5): 7.9%
Composition (%) of products formed by hydrolysis reaction: M6 ([1]; substrate M5): 2.8%
Composition (%) of products formed by hydrolysis reaction: M7 ([1]; substrate M5): 0.9%
Composition (%) of products formed by hydrolysis reaction: M1 [2]: 3.3%
Composition (%) of products formed by hydrolysis reaction: M2 [2]: 17.5%
Composition (%) of products formed by hydrolysis reaction: M3 [2]: 13.9%
Composition (%) of products formed by hydrolysis reaction: M4 [2]: 25.2%
Composition (%) of products formed by hydrolysis reaction: M5 [2]: 19.7%
Composition (%) of products formed by hydrolysis reaction: M6 [2]: 12.9%
Composition (%) of products formed by hydrolysis reaction: M7 [2]: 7.5%
Composition (%) of products formed by hydrolysis reaction: M8 [2]: 2.9%
Specific activity ([3]; substrate Guar gum): 967 ± 18 IU mg^−1
Specific activity ([3]; substrate Insoluble ivory nut mannan): 14,711 ± 183 IU mg^−1
Specific activity ([3]; substrate Locust bean gum): 8,498 ± 105 IU mg^−1
Specific activity ([3]; toward insoluble ivory nut mannan): 14,711^c IU/mg
Specific activity ([3]; toward locust bean gum): 8,498^d IU/mg
